Experimental data from patent US20110257105A1 (CARA THERAPEUTICS, published 2011).
Square brackets hold non-standard residues; d marks the D form. Ends that are not written are not given here. dAgb = N=C(N)NCC[C@@H](N)C(=O)O; dNle = CCCC[C@@H](N)C(=O)O

B1: Compound (52): D-Phe-D-Phe-D-Leu-(D-Lys-GlyLactam)2-D-Leu-D-Phe-D-Phe (peptide)
peptide: [dF][dF][dL][dK]G
modifications: not fully specified (bridges); printed as D-Phe-D-Phe-D-Leu-(D-Lys-GlyLactam)2-D-Leu-D-Phe-D-Phe; also: two chains joined through (D-Lys-Gly lactam)2 linker
B2: Compound (3): D-Phe-D-Phe-D-Nle-D-Arg-D-Pro-OH (peptide)
peptide: [dF][dF][dNle][dR][dP]-OH
modifications: N-terminus assumed
SMILES: CCCC[C@@H](NC(=O)[C@@H](Cc1ccccc1)NC(=O)[C@H](N)Cc1ccccc1)C(=O)N[C@H](CCCNC(=N)N)C(=O)N1CCC[C@@H]1C(=O)O
B3: Compound (49): 1N,4N-bis-[D-Phe-D-Phe-D-Leu-(iPr)D-Orn]-4-amino-4-carboxylic-piperidine (peptide)
peptide: [dF][dF][dL][dOrn(iPr)]-{4‑amino‑4‑carboxylic piperidine}
modifications: also: two identical chains joined through C-termini to N1 and 4-amino group of piperidine scaffold
B4: Compound (51): 1N,4N-bis-(D-Phe-D-Phe-D-Leu-D-Nar)-4-amino-4-carboxylic piperidine (peptide)
peptide: [dF][dF][dL][dAgb]-{4‑amino‑4‑carboxylic piperidine}
modifications: also: two identical chains joined through C-termini to N1 and 4-amino group of piperidine scaffold
B5: Compound (50): 1N,4N-bis-[D-Phe-D-Phe-D-Leu-D-Dap(amidino)]-4-amino-4-carboxylic piperidine (peptide)
peptide: [dF][dF][dL][dDap(amidino)]-{4‑amino‑4‑carboxylic piperidine}
modifications: also: two identical chains joined through C-termini to N1 and 4-amino group of piperidine scaffold

These molecules were tested against mouse kappa opioid receptor (mouse) (UniProt P33534) (assay: cell-based or functional assay).
mouse kappa opioid receptor (mouse), sequence (P33534 whole entry): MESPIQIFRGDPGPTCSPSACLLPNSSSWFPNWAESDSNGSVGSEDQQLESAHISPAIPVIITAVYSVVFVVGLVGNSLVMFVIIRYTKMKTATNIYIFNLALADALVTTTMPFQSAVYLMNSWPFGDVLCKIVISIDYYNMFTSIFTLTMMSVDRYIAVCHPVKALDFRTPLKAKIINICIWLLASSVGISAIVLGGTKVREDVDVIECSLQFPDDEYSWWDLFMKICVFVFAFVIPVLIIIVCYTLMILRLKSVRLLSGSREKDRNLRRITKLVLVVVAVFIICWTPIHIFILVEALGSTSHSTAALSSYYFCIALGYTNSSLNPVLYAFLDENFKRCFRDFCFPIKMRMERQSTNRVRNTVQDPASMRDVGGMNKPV
“Compound (39): D-Phe-D-Phe-D-Leu-D-Orn-[eLys(D-Orn-D-Leu-H)]-OH (peptide)” gave an EC50 (nM), cAMP inhibition in R1.G1 cells of 67.3 nM and an Efficacy(%), cAMP inhibition in R1.G1 cells of 35%. In the case of B1, the EC50 (nM), cAMP inhibition in R1.G1 cells is reported as 13.8 nM and the Efficacy(%), cAMP inhibition in R1.G1 cells is reported as 76%.

Each molecule was assayed against mouse kappa opioid receptor (mouse, UniProt P33534 1-380) (assay: cell-based or functional assay).
mouse kappa opioid receptor, sequence (P33534 whole entry): as above
For B2, the “EC50 (nM), cAMP inhibition in R1.G1 cells” value (“EC50 (nM), cAMP inhibition” below) was 9.05 nM and the “Efficacy(%), cAMP inhibition in R1.G1 cells” value (“Efficacy(%), cAMP inhibition” below) was 88%. B3 was tested, and the “EC50 (nM), cAMP inhibition” value was 1.83 nM and the “Efficacy(%), cAMP inhibition” value was 50%. In the case of B4, the “EC50 (nM), cAMP inhibition” value is reported as 95.8 nM and the “Efficacy(%), cAMP inhibition” value is reported as 60%. For B5, the “EC50 (nM), cAMP inhibition” value was 56.7 nM and the “Efficacy(%), cAMP inhibition” value was 77%.
